This data set deals with the molecule itself. In words: SEC. On the technique in general: SEC sorts molecules by how far they enter the pores of the column.

The term stoichiometry N denotes the number of molecules, sites or subunits per partner or assembly.

B1: Methanococcus maripaludis O-phosphoseryl-tRNA:selenocysteinyl-tRNA synthase (SepSecS) (enzyme, UniProt Q6LZM9 1-436, looked up)
chain: MLDFNIEGLIPKNMEKRGELVLNEYLKEIEDVFNHRKIPENGIDDEKIKLFLKFLSMMDTDKDPKSVRIGEREARTYSKIHEELSSGFCHGIGRSGNLVDPQPKASGASIMYALTNKILESFFKQLGLNVHAIATPISTGMSISLCLSAARKKYGSNVVIYPYASHKSPIKAVSFVGMNMRLVETVLDGDRVYVPVEDIENAIKKEIELGNRPCVLSTLTFFPPRNSDDIVEIAKICENYDIPHIINGAYAIQNNYYLEKLKKAFKYRVDAVVSSSDKNLLTPIGGGLVYSTDAEFIKEISLSYPGRASATPVVNTLVSLLSMGSKNYLELVKNQKNSKKLLDELLNDLSKKTGGKFLDVESPIASCISVNSDPVEIAAKLYNLRVTGPRGIKKTDHFGNCYLGTYTHDYIVMNAAIGVRTEDIVNSVSKLEKILL
modifications: selenomethionine-labeled; PLP covalently bound via a Schiff base to Lys278
On to B1, for which the “stoichiometry N” value came out at 4.

Source of the values: paper PMC2275076 (Nucleic Acids Research, 2007).
